Results reported in US7449563B2, “Methods and compositions for destabilizing microtubules” (Academia Sinica, priority 2003, dated 2008).

Columns and labels:
[1] = tested on: HeLa cells; test: Cell-based assay for CPAP activity: microtubule reassembly in cold-treated transfected HeLa cells; set-up: species or system human; settings: transiently transfected HeLa cells
Procedure: Cell Culture and Transfection
(§1) HeLa cells were maintained in DMEM supplemented with 10% fetal bovine serum. cDNA clones encoding different portions of CPAP were subcloned, in an appropriate reading frame, into the CMV promoter-driven EGFP-C1 expression vector (Clontech, Palo Alto, Calif.). Transient transfections were performed using Lipofectamine 2000 (Invitrogen, Carlsbad, Calif.) according to the manufacturer's instructions.
Cold Treatment, Immunofluorescence and Confocal Microscopy
HeLa cells were grown on coverslips for at least 24 hr. Cold treatment was performed by incubating the cells at 4° C. for 1 hr, then replacing the cold medium with medium warmed to 30° C. and incubating the cells for 2 min at 30° C. The cells were then fixed with 1% formaldehyde for 30 min at room temperature.
The fixed cells were incubated in the presence of anti-α-tubulin monoclonal antibodies (N356, Amersham, Piscataway, N.J.) and anti-γ-tubulin polyclonal antibodies (Sigma, Saint Louis, Mo.). Bound anti-α-tubulin monoclonal antibodies (N356) were detected with Alexa 568, a Texas Red-conjugated goat anti-mouse IgG, or Alexa 647, a far-red fluorophore-conjugated goat anti-mouse IgG. Bound anti-γ-tubulin polyclonal antibodies were detected with Alexa 568 (Molecular Probes Inc.). The resulting […] signals were detected using a laser scanning confocal system (MRC 1000, Bio-Rad Laboratories, Hercules, Calif.).
The effect of various polypeptides derived from CPAP was determined by evaluating the amounts of mitotic spindle formation in the transfected cells. Decreased mitotic spindle formation indicated the presence of an activity that inhibited microtubule formation or destabilized microtubules.

[2] = tested on: HeLa cells; test: Flow cytometric cell cycle analysis of transfected HeLa cells; assay type: cell-based, human; settings: transiently transfected HeLa cells
Procedure: as §1
Transfected HeLa cells were harvested 48 hr following transfection. Both the adherent cells and non-adherent cells present in the culture supernatants were collected and subjected to centrifugation. The resulting cell pellets were resuspended in PBS then fixed in 1% formaldehyde at 4° C. for 30 min. Following fixation, the cells were collected by centrifugation, washed, and resuspended in 70% cold ethanol. The resuspended cells were either stored at −20° C. overnight or immediately used for FACS analysis.
FACS analysis was performed by collecting the fixed cells by centrifugation and resuspending the cells in DNA staining solution (100 μg/ml propidium iodide, 0.1% Triton X, and 100 μM EDTA in PBS) for 30 min at room temperature. Cell cycle analysis was performed on a FACS Calibur (Becton-Dickinson, Mountain View, Calif.) with the signal gated to measure only GFP fluorescence. Ten thousand events were acquired and the percentages of cells in G0/G1, S, and G2/M were determined using the ModfitLT software (version 2.0, Verity Software House, Inc., Topsham, Me.). The apparent accumulation of cells with two genome copies (i.e., twice the genetic material of G0/G1 cells) is indicative of cell cycle arrest after DNA synthesis but prior to mitosis.

[3] = molecular target: T1, polymerized microtubules (bovine brain tubulin) (Bos taurus, UniProt P81947+Q6B856); test: Microtubule depolymerization assay (centrosomes omitted); assay type: biochemical; settings: centrosomes absent; nocodazole 15 μM as positive control; data not shown
T1 construct: containing 125 μg bovine brain tubulin (Cytoskeleton, Denver, Colo.); purchased Cytoskeleton, Denver, Colo; host or cells: bovine brain (tissue-purified)
Procedure: Microtubule Depolymerization Assay
In this assay, centrosomes are omitted from the above reaction mixtures to determine the effects of various truncated GST-CPAP proteins or synthetic peptides on microtubule polymerization in the absence of centrosomes. Polymerized microtubules were stained using FITC-conjugated anti-α-tubulin monoclonal antibodies, as above. Nocodazole (15 μM) was added to some reactions mixtures as a positive control for microtubule depolymerization.

[4] = molecular target: T2, Bovine brain α/β tubulin (Bos taurus, UniProt P81947+Q6B856); test: In vitro microtubule sedimentation assay; assay type: biochemical; settings: 15 μM tubulin; 40 μM polypeptide
T2 construct: Bovine brain α/β tubulin (15 μM; Cytoskeleton Inc., Denver, Colo.); purchased Cytoskeleton Inc., Denver, Colo; host or cells: bovine brain (tissue-purified)
Procedure: In vitro Microtubule Sedimentation Assay
Bovine brain α/β tubulin (15 μM; Cytoskeleton Inc., Denver, Colo.) was pre-incubated with various amounts of truncated GST-CPAP proteins in a 50 μl reaction mixture comprising RG1 buffer (see Example 2) for 30 min at 37° C. Tubulin polymerization was initiated by adding 50 μl GMRG buffer (RG1 buffer supplemented with 12 mM MgCl2 and 50% glycerol), then incubating the reaction mixtures at 37° C. for 1.5 hr.
The reaction mixtures were then subjected to centrifugation at 300,000×g for 15 min at 37° C., in a TL-100 ultracentrifuge (Beckman Instruments, Fullerton, Calif.). Supernatants (S) and pellets (P) were analyzed by SDS-PAGE followed by staining with Coomassie blue.
Microtubule disassembly was confirmed using the microtubule sedimentation assay. Following centrifugation of the reaction mixtures, relatively soluble tubulin monomers and small multimers are found in the supernatant, while relatively insoluble polymerized tubulin is found in the pellet. To assay the ability of PN2-3-containing polypeptides to destabilize microtubules, reactions comprising 15 μM tubulin were incubated in the presence of increasing amounts of GST-PN2-3 (1.9, 3.8, 7.5, and 15 μM) or GST-PN2-2 (15, 30, or 40 μM), or in the absence of CPAP-derived polypeptides (control; FIG. 4A).

T2 sequence (P81947 whole entry): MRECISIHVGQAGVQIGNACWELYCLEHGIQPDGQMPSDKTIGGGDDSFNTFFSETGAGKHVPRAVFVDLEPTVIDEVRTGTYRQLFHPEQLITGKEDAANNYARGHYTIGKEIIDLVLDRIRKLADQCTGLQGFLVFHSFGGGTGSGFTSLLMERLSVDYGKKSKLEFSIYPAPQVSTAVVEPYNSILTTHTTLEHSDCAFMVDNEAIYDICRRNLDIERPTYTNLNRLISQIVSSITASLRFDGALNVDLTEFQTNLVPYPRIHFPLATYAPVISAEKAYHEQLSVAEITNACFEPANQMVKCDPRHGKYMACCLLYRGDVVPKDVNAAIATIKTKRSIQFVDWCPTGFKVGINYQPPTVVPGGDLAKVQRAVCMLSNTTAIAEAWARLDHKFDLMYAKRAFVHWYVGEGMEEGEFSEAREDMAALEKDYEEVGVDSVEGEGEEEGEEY
T2 sequence (Q6B856 whole entry): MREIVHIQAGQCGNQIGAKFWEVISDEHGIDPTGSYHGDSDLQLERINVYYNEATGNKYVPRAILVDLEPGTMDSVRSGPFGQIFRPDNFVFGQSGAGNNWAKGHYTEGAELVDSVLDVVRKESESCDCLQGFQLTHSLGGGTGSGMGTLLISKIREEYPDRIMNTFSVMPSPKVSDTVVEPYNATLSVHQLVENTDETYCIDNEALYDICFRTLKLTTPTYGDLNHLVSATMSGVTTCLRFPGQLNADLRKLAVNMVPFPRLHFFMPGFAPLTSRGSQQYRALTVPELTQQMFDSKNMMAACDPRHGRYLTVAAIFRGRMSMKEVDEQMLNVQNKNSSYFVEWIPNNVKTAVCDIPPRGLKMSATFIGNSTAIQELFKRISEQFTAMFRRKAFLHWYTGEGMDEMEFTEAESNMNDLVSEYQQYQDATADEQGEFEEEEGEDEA
T1 sequence (P81947 whole entry): as the sequence (P81947 whole entry) above
T1 sequence (Q6B856 whole entry): as the sequence (Q6B856 whole entry) above

| Disassembly of polymerized microtubules in the absence of centrosomes (in words) [3] | Distribution of tubulin in the supernatant and pellet (in words) [4] | Molecule | Inhibition of microtubule reassembly in cold-treated mitotic cells (in words) [1] | Cell cycle distribution by DNA content (in words) ([2]; propidium iodide, GFP-gated) | Cell morphology (in words) ([2]; data not shown) | Cell proliferation (in words) ([2]; data not shown) |
| --- | --- | --- | --- | --- | --- | --- |
| – | – | GFP-PN2-3: GFP-tagged CPAP residues 311-422, expressed from a transfected vector (protein, UniProt Q9HC77 311-422, looked up, fragment, GFP tag, GFP-tagged CPAP residues 311-422, expressed from a transfected vector) QKHDDSSEVANIEERPIKAAIGERKQTFEDYLEEQIQLEEQELKQKQLKEAEGPLPIKAKPKQPFLKRGEGLARFTNAKSKFQKGKESKLVTNQSTSEDQPLFKMDRQQLQR | significantly inhibited microtubule reassembly | progressive accumulation in G2/M | change in morphology (to round cells) | stopped proliferating |
| no such effect | little effect | GST-PN2-2: GST fusion polypeptide with sub-region PN2-2 of PN2 (CPAP residues 191-310 per b157) (protein, left off: a dimerising Fc or GST) LSLLPDDQSQKHRSPGNTTTGERATCCFPSYVYPDPTQEETYPSNILSHEQSNFCRTAHGDFVLTSKRASPNLFSEAQYQEAPVEKNNLKEENRNHPTGESILCWEKVTEQIQEANDKNL | – | – | – | – |
